Measurements as given in paper PMC8872791, “MadR mediates acyl CoA-dependent regulation of mycolic acid desaturation in mycobacteria” (Proceedings of the National Academy of Sciences of the …, 2022).

Assays:
[1] = target: T1, MadR (Mycobacterium tuberculosis H37Rv) (UniProt P9WMD9); experiment: EMSA
T1 sequence: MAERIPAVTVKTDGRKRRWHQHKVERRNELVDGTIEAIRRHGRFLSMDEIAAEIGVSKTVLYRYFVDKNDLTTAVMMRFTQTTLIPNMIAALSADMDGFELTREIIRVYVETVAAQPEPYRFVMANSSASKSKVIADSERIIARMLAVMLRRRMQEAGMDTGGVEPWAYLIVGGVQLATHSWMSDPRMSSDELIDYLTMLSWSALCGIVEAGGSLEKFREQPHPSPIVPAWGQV

MadR = target: T2, MadR (Mycobacterium tuberculosis H37Rv, UniProt P9WMD9 1-234); experiment: EMSA; details: protein: recombinant; tags: His-tag implied (pET28a, cobalt IMAC); chain copies: 2; blunt
T2 sequence: T1 sequence

GGGCCGAACATACTCACCCGGATCGGAGGGCCGAGGACACGGTCGAACGAGGGGCATGACCCGGTGCGGGGCTTCTTGCACTCGGCATAGGCGAGTGCTAAGAATAACGTTGGCACTCGCGACCGGTGAGTGCTAGGTCGGGACGGTGAGGCCAGGCCCGTCGTCGCAGCGAGTGGCAGCGAGGACAACTTGAGCCGTCCGTCGCGGGCACTGCGCCCGGCCAGCGTAAGTAGCGGGGTTGCCGTCACCCGGTGACCCCCGTTTCATCCCCGATCCGGAGGAATCACTTCGCA (double strand) [hsp60 promoter]
binding [1]: no binding

B1: desA1 promoter -19/+31 (dsDNA)
DNA 1: CAGTTATCTGTGTCTAATGGTTGCAGTCAATATATCTGTGTCTCTCGGTA
DNA 2: TACCGAGAGACACAGATATATTGACTGCAACCATTAGACACAGATAACTG
binding result (MadR): binds

B2: desA2 promoter -36/+14 (dsDNA)
DNA 1: TTCACGAAATCTGTGTATGCGAGTTACAGTTACCGCATGGCACAGAAACC
DNA 2: GGTTTCTGTGCCATGCGGTAACTGTAACTCGCATACACAGATTTCGTGAA
binding result (MadR): binds
